In the DeepSol protein solubility set:

Experiment: soluble on expression in E. coli; label from the status in PepcDB or PDB records

| Sequence | soluble on expression in E. coli |
| --- | --- |
| MSRISSMAYKWKQPPPPINDDSRHRSQSNSRLFDRIYGQMHRGNKAFEHTTSYDESISGFMRRRFAGNGERALPLRYGTNPHQKDDAELYIVEDEMPIKVLNGSPGYINILDGLNGWQLVKELSDATKMPAAASFKHVSPAGAAVGLPLNETEAACCMVSDLPIDTKKPSLAAAYARARGADRMSSFGDFIALSEKCDELTAKIINREVSDGVVAPDFDPAALSLLAKKKNGNYCVLKINPNYLPSETEERTVFGLRLRQKRNNAVINAETFNNVVGSANELNKQAIDDLIVATIALKYAQSNSVCFAHRGQVIGMGAGQQSRIHCTRLAGDKAMNWWLRQHPTVLSLPWKNAIKRSEKSNAIDVLCSGVLGSEVCNFKFNRPLSYFSLVTNL | not soluble |
| MSSPPPARSGFYRQEVTKTAWEVRAVYRDLQPVGSGAYGAVCSAVDGRTGAKVAIKKLYRPFQSELFAKRAYRELRLLKHMRHENVIGLLDVFTPDETLDDFTDFYLVMPFMGTDLGKLMKHEKLGEDRIQFLVYQMLKGLRYIHAAGIIHRDLKPGNLAVNEDCELKILDFGLARQADSEMTGYVVTRWYRAPEVILNWMRYTQTVDIWSVGCIMAEMITGKTLFKGSDHLDQLKEIMKVTGTPPAEFVQRLQSDEAKNYMKGLPELEKKDFASILTNASPLAVNLLEKMLVLDAEQRVTAGEALAHPYFESLHDTEDEPQVQKYDDSFDDVDRTLDEWKRVTYKEVLSFKPPRQLGARVSKETPL | soluble |
| MQQINFYRQRVAINVLAKDIANAKAIYEAAEGHAVIGVLSAQFATVEEGVPEVKRWMAEVPSISVGLGAGDPAQYYKAAMIAAHTHPAHVNQTFTGSGFAAGALAATGGEQTHINALVSPTGTPGEVVISTGVSSSQGTPARVSCEAAVRMMQDMGAHAAKFFPMGGEKSLPELYALATTAARHGMTLIEPTGGISLDNFGIILQTCLEAGVPRVMPHVYSSIIDPQTGNTRPEDIIRLMEIVKALV | not soluble |
| MGSDKIHHHHHHMNLRHLVFFKELARTQHMAKAAENLGISQPSLSYAIKKLEHELGVPLFEADGRNIKLTSIGGVYLKYVTATLNDLSQGNELVKQLMDPDTGHVKLGFTYTLGQQLVPELLSHFKNQSENQAITFELGQGNSGVLLQALADEKYDIVLASNVDRLGEQLTAHLFDFIPLVQQEIVAVVPNDHPAVQKNPLHVEDLAPYPMILFSQNSGLRPLIDQILSAAHVQPKVAYEVEEDYTMAGFVRYNMGVALMPYLPLLNPERVQIKHLADQPLQHQIYLVVRRSGFITPAVHRFQEFIRSYCWQHYTNQERSI | not soluble |
| GPGSNYTFSMRATLDDPDVQNGITQGDRQQIQDAVNAASSWLEKNREATKEEYMEQTKLIEGIAHPILSEFYKKRVMEAPPSAGPKDGAPSDEVPHAEDVD | soluble |
| MGSDKIHHHHHHMIFASDLDQTLIYSRKSFRAHIEDNSIQLIETLDGKEISFITYKTITLLIKLQLHSYFIPVTTRTIEQFQRITLFQNEIIPEYAITSNGGNILHNGKQDVTWNKEIKKRISVECIERNDILKEFEQIAHKDWVISQKTADDLFHYCIIKRENIPYDELSSFTSWLDKQGWNHSLQGRKLYFVPKPINKWDAVQYIQEILQMDTIITAGDSLLDLCMLEKANYAFAPLHGELGATYNHLQPHIVKTDAIGIYAAEEIVSKSLQIIHSSSPTS | not soluble |
| MEDIYYSPRYEDDEYEYRHVILPQAVSRKVPKGRLLSEAEWRRAGVQQSLGWEHYMVHNPEKHILLFRRKRHFTKADEERAKMELLRDMEVFNRAQQQTTATDEKLNAVFYEFVNKAV | not soluble |
| MLVLFEVAAGYAVFKLSNEKKLKNVDNIWEEFSTAEKAQENLQLVSFKKFKTTAGAVEATSEITEGKLSKTLKKLLKSSVDETEKLAVGDAKLGNLIKEKLSLNCVHDSSINELMRGVRAHIEDLLAEHKEEMNAMNLAVAHSLARYKVKFNPEKIDTMIVQAVSLLDDLDKELNNYVMRVREWYGWHFPELGKTIQDHQAYAKIIKAIGMRQNCINTDLSSILPEELEEKVKEDAEISMGTDISDIDLIHIKGLCDQVIELSAYRAQLFDYLKNRMTALAPNLTVLLGELVGARLISHAGSLVSLAKAPASTIQILGAEKALFRALKTKKDTPKYGLIYHAQLITQAPPKVKGKMARKLAAKCSLATRIDALSDESATNEIGIECRAALENVLRTESERGPSKNKSFGSHRHDKYEFKSETYEYDASADTPASRKHKRFDDNEESTNAIKKMKIEEVKEEDEAEPEKKKKKKEKKAKKADTDSDEE | not soluble |
| MIIPALDLIDGTVVRLHQGDYARQRDYGNDPLPRLQDYAAQGAGVLHLVDLTGAKDPAKRQIPLIKTLVAGVNVPVQVGGGVRTEEDVAALLKAGVARVVIGSTAVKSPDVVKGWFERFGAQALVLALDVRIDEHGTKQVAVSGWQENSGVSLEQLVETYLPVGLKHVLCTDISRDGTLAGSNVSLYEEVCARYPQIAFQSSGGIGDIDDIAALRGTGVRGVIVGRALLEGKFTVKEAIQCWQNV | not soluble |
| MGSDKIHHHHHHMPSIRVVNLKKYFGKVKAVDGVSFEVKDGEFVALLGPSGCGKTTTLLMLAGIYKPTSGEIYFDDVLVNDIPPKYREVGMVFQNYALYPHMTVFENIAFPLRARRISKDEVEKRVVEIARKLLIDNLLDRKPTQLSGGQQQRVALARALVKQPKVLLFDEPLSNLDANLRMIMRAEIKHLQQELGITSVYVTHDQAEAMTMASRIAVFNQGKLVQYGTPDEVYDSPKNMFVASFIGNPPTNFLRDFSVSVENKQTILKRDDVIIKLPEPVDVKLKEVVVGIRPEHCRISRERVENSIPGVVYVVEPLGRDIIVNVKTEKGEIIKVFGDTGKAPQPGENVFLVPDLRKIHLFNPETEETIL | not soluble |
| MGSDKIHHHHHHMKVVKFGGSSLASGAQLDKVFHIVTSDPARKAVVVSAPGKHYAEDTKVTDLLIACAEQYLATGSAPELAEAVVERYALIANELQLGQSIIEKIRDDLFTLLEGDKSNPEQYLDAVKASGEDNNAKLIAAYFRYKGVKAEYVNPKDAGLFVTNEPGNAQVLPESYQNLYRLRERDGLIIFPGFFGFSKDGDVITFSRSGSDITGSILANGLQADLYENFTDVDAVYSVNPSFVENPKEISELTYREMRELSYAGFSVFHDEALIPAFRAGIPVQIKNTNNPSAEGTRVVSKRDNTNGPVVGIASDTGFCSIYISKYLMNREIGFGRRALQILEEHGLTYEHVPSGIDDMTIILRQGQMDAATERSVIKRIEEDLHADEVIVEHHLALIMVVGEAMRHNVGTTARAAKALSEAQVNIEMINQGSSEVSMMFGVKEAEERKAVQALYQEFFAGVLIS | not soluble |
| MAHHHHHHMHFSQYPLRLTDLERQKLQLIVAALKVSEYTDDVDDFMRPYGKEGRMEAAMREFIDIVVGLAIASDAIPRSVKNSFLAGEVKVATVVPLLEDLFEIMRRHKRLNPFSHRGEFGKLMMMLQDVQKRSLQRALEIQSTLVIPVRTVEAALSSIYCETLVDDEAVRTDYLKRTGAEKQAGMQSLIERYGKGDEHKKEVIEHCLRSIDDVYSFIQSNTRPLRTLRRWLSRDFEPLPSDDVYSISIRHGRSGACFTHSHATHCQYVTESLLLWENVQKNILNLWEAAEDDMLVEGQGQYVVANTGQGFHRMCSAPKSYGVMSRLVRDTEQRMGGWVGIKVIHLGDRDVPNPLVFIDKYTVIPRLVKPVVQTLHALRYVLHEEDEEEEGQPQVAHEYDNYPGLRNLLRSKYHSYSELMMMILSDFFKHAFDGSGDDGGSCIDGRLTSAWNWCHQLHKKKYYDAFVLTGFAGFD | not soluble |
| MAAIHINHDVFNKYHTNGKLRLTTGYVQEAIENNGYPGHDGIVQVLKGKVEQGEQLGHAFTFRIRISDGVFQYNALMSADIDDQIKREVEHLVEGTIIALTKFEIYDQGEGAKNCFLIKGYKILSRYHQVLTSPEVKPRSHSGKPDEHKGYRPNIIIEDVWPEAEGMAADYQENMANPPAAKAPKREFGEEASYNRAAAPEATRARAVPPPARRTASNTERGVMPIAMVTPYVSNFKIHGMVSRKEEIRTFPAKNTKVFNFEITDSNGDTIRCTAFNEVAESLYTTITENLSYYLSGGSVKQANKKFNNTGHDYEITLRSDSIIEAGGELLAAPKLILKRVKLGEIAGYAGQLIDVLVVVEKMDPEATEFTSKAGKSLIKREMELIDESGALVRLTLWGDEATKALVDDYVQKVIAFKGVIPREFNGGFSLGTGSATRIISVPEIAGVSELYDWYANVKPTTEVKMMSQAAGGSNEAPRTIAGLQEMQFGKDSDKGDYATVKAMITRVNPTNALYRGCASEGCQKKLVGENGDYRCEKCNKNMNKFKWLYMMQFELSDETGQVYVTAFGDSAAKIVGKSAAELGELHDESPDEYNAIFERLQFVPKMWRLRCKMDSYNEEVRQKMTVYGVDDVNQDKYIENLKQMIEQMQQMSDY | soluble |
